Laboratory results: publication PMC4865107

What was measured:
[1] = tested on: Topo IV; experiment: EMSA (agarose); conditions: no XerCD; 200 nM Topo IV required for migration delay; 1 mM spermidine, 30 mM potassium glutamate, 10 mM DTT, 6 mM MgCl2, 10% glycerol, pH 7.4, 15 min at RT; 4% native PAGE (plasmid: 0.8% agarose, 0.5x TAE, 4 C)
[2] = tested on: Topo IV;XerC;XerD (Escherichia coli?;Escherichia coli?;Escherichia coli?); experiment: EMSA (agarose); conditions: 50 nM XerCD; migration delay seen with 40 nM Topo IV; 1 mM spermidine, 30 mM potassium glutamate, 10 mM DTT, 6 mM MgCl2, 10% glycerol, pH 7.4, 15 min at RT; 4% native PAGE (plasmid: 0.8% agarose, 0.5x TAE, 4 C)
[3] = tested on: Topo IV; experiment: EMSA; conditions: Topo IV alone; stated as bound poorly; 1 mM spermidine, 30 mM potassium glutamate, 10 mM DTT, 6 mM MgCl2, 10% glycerol, pH 7.4, 15 min at RT; 4% native PAGE (plasmid: 0.8% agarose, 0.5x TAE, 4 C)

| Substance | binding [1] [nM] | binding [2] [nM] | Kd [3] [nM] |
| --- | --- | --- | --- |
| negatively supercoiled plasmid containing dif | 200 | 40 |  |
| dif probe, 250 bp |  |  | > 100 |
